Earlier results in patent US10463717B2, “Compositions in the form of an injectable aqueous solution comprising amylin, an amylin receptor agonist or an amylin analog, and a co-polyamino acid” (ADOCIA, priority 2016, dated 2019).
Where two headings read alike, the source gives them in different places. No end group written: not given here.

Row | Compound | Stability of amylin in solution (acidic pH) | Stability of amylin in solution (neutral pH) | pH of the solution above which fibrils form (described for the marketed peptide)
1 | amylin: 37 aminoacids peptide which is co-stored and co-secreted with insulin (KCNTATCATQRLANFLVHSSNNFGAILSSTNVGSNTY; not fully specified (C-terminus, bridges); cysteine pairing not given here; UniProt P10997 34-70, looked up) | about fifteen minutes | less than a minute | –
2 | CC[C@H](C)[C@H](NC(=O)[C@@H]1CCCN1C(=O)CNC(=O)[C@H](Cc1ccccc1)NC(=O)[C@H](CC(N)=O)NC(=O)[C@H](CC(N)=O)NC(=O)[C@H](CO)NC(=O)[C@H](CO)NC(=O)[C@H](Cc1c[nH]cn1)NC(=O)[C@@H](NC(=O)[C@H](CC(C)C)NC(=O)[C@H](Cc1ccccc1)NC(=O)[C@H](CC(N)=O)NC(=O)[C@H](C)NC(=O)[C@H](CC(C)C)NC(=O)[C@H](CCCNC(=N)N)NC(=O)[C@H](CCC(N)=O)NC(=O)[C@@H](NC(=O)[C@H](C)NC(=O)[C@@H]1CSSC[C@H](NC(=O)[C@@H](N)CCCCN)C(=O)N[C@@H](CC(N)=O)C(=O)N[C@@H]([C@@H](C)O)C(=O)N[C@@H](C)C(=O)N[C@@H]([C@@H](C)O)C(=O)N1)[C@@H](C)O)C(C)C)C(=O)N[C@@H](CC(C)C)C(=O)N1CCC[C@H]1C(=O)N1CCC[C@H]1C(=O)N[C@H](C(=O)N[C@@H](CC(N)=O)C(=O)N[C@H](C(=O)NCC(=O)N[C@@H](CO)C(=O)N[C@@H](CC(N)=O)C(=O)N[C@H](C(=O)N[C@@H](Cc1ccc(O)cc1)C(N)=O)[C@@H](C)O)C(C)C)[C@@H](C)O [pramlintide, reference compound] | – | – | higher than 5.5
